Measurements as given in US12123042.

Tested on: cytochrome C

S. rebaudiana CPR1 (cytochrome P450 reductase), sequence (chain, as listed by the source): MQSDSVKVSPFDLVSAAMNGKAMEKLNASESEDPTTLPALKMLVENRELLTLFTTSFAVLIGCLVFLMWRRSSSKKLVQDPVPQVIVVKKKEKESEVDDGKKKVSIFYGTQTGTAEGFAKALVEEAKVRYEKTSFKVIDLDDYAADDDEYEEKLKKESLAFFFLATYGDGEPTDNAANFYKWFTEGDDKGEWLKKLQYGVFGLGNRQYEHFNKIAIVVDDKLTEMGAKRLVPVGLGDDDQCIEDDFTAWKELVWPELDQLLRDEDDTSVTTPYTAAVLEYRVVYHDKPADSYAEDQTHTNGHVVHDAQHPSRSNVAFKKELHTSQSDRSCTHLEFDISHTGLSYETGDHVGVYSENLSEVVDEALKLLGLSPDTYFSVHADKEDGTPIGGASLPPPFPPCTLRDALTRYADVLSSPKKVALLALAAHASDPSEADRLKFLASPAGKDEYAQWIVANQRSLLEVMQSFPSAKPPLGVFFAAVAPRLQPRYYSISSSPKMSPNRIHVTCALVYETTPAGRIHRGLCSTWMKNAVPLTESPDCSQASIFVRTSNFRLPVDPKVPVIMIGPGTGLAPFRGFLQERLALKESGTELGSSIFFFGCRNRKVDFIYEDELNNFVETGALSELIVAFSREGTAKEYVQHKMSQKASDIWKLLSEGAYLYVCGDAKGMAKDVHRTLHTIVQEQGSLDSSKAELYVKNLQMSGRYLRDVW

S. rebaudiana CPR1 (cytochrome P450 reductase)
CPR activity (cytochrome C reductase assay, increase in absorbance at 550 nm, units/mg microsomal protein): 7- and 14-fold higher activity, respectively, compared to the negative control
